Key:
Test in all cases: cell-based or functional assay
[1] = molecular target: SARS-CoV-2 Alpha (B.1.1.7) full-length Spike protein (SARS-CoV-2) (UniProt P0DTC2)
[2] = molecular target: SARS-CoV-2 Beta (B.1.351) full-length Spike protein (SARS-CoV-2) (UniProt P0DTC2)
[3] = molecular target: SARS-CoV-2 Delta (B.1.617.2) full-length Spike protein (SARS-CoV-2) (UniProt P0DTC2)
[4] = molecular target: SARS-CoV-2 Delta-plus (B.1.617.2.1) full-length Spike protein (SARS-CoV-2) (UniProt P0DTC2)
[5] = molecular target: SARS-CoV-2 Epsilon (B.1.427/9) full-length Spike protein (SARS-CoV-2) (UniProt P0DTC2)
[6] = molecular target: SARS-CoV-2 Gamma (P.1.B.1.1.28) full-length Spike protein (SARS-CoV-2) (UniProt P0DTC2)

Measured: Pseudovirus Neutralization

Anti-Nucleocapsid (Neg Control) (antibody)
> 50 µg/mL: all assays above
